From patent US10774132B2, “Ultralong complementarity determining regions and uses thereof” (THE SCRIPPS RESEARCH INSTITUTE, priority 2012, dated 2020)

Test system: Mouse NFS-60 cells
Experiment: Proliferation assay on mouse NFS-60 cells (AlamarBlue)
Type: cell-based
Settings: for F.I. (fluorescence at 595 nm, AlamarBlue, cell viability): 72 hours
Procedure: Mouse NFS-60 cells were obtained from American Type Culture Collection (ATCC), VA, and cultured in RPMI-1640 medium supplemented with 10% fetal bovine serum (FBS), 0.05 mM 2-mercapoethanol and 62 ng/ml human macrophage colony stimulating factor (M-CSF). For proliferation assay, mouse NFS-60 cells were washed three times with RPMI-1640 medium and resuspended in RPMI-1640 medium with 10% FBS and 0.05 mM 2-mercapoethanol at a density of 1.5×10^5 cells/ml. In 96-well plates, 100 μl of cell suspension was added into each well, followed by the addition of varied concentrations of bGCSF, BLV1H12 antibody, and the immunoglobulin constructs described herein, Equal volume of PBS buffer was added into the control wells. The plates were incubated at 37° C. in a 5% CO2 incubator for 72 hours. Cells were then treated with AlamarBlue (Invitrogen) ( 1/10 volume of cell suspension) for 4 hours at 37° C. Fluorescence at 595 nm for each well was read to indicate the cell viability.

B1: Ab: bovine BLV1H12 antibody with ultralong CDR3, no insertion; scaffold of the fusions and control (antibody)
heavy: QVQLRESGPSLVKPSQTLSLTCTASGFSLSDKAVGWVRQAPGKALEWLGSIDTGGNTGYNPGLKSRLSITKDNSKSQVSLSVSSVTTEDSATYYCTSVHQETKKYQSCPDGYRERSDCSNRPACGTSDCCRVSVFGNCLTTLPVSYSYTYNYEWHVDVWGQGLLVTVSS
light: QAVLNQPSSVSGSLGQRVSITCSGSSSNVGNGYVSWYQLIPGSAPRTLIYGDTSRASGVPDRFSGSRSGNTATLTISSLQAEDEADYFCASAEDSSSNAVFGSGTTLTVLGQPKSPPSVTLFPPSTEELNGNKATLVCLISDFYPGSVTVVWKADGSTITRNVETTRASKQSNSKYAASSYLSLTSSDWKSKGSYSCEVTHEGSTVTKTVKPSECS
  proliferative activity on mouse NFS-60 cells: lack of proliferative activity
0.45725 ng/mL
  F.I. (fluorescence at 595 nm, AlamarBlue, cell viability): 1040
1.37174 ng/mL
  F.I. (fluorescence at 595 nm, AlamarBlue, cell viability): 1010
4.11523 ng/mL
  F.I. (fluorescence at 595 nm, AlamarBlue, cell viability): 983.3
12.34568 ng/mL
  F.I. (fluorescence at 595 nm, AlamarBlue, cell viability): 971.8
37.03704 ng/mL
  F.I. (fluorescence at 595 nm, AlamarBlue, cell viability): 960.5
111.11111 ng/mL
  F.I. (fluorescence at 595 nm, AlamarBlue, cell viability): 991.83
333.33333 ng/mL
  F.I. (fluorescence at 595 nm, AlamarBlue, cell viability): 964.798
